Measured values as given in doi:10.1101/2022.08.30.505904.

What was measured:
[1] = molecular target: CBKP1 complex (PaCgi121/PaBud32/PaKae1/PaPcc1) (Pyrococcus abyssi) (UniProt Q9UXT7); test: SEC-SAXS
[2] = molecular target: CBKP2 complex (PaCgi121/PaBud32/PaKae1/PaPcc2) (Pyrococcus abyssi | Pyrococcus abyssi GE5) (UniProt Q9UXT7); test: SEC-SAXS
[3] = molecular target: PaPcc2 with C-terminal hexa-histidine tag (Pyrococcus abyssi GE5); test: SEC

“CBKP1 complex (PaCgi121/PaBud32/PaKae1/PaPcc1) (from UniProt Q9UXT7 1-324)” gave a stoichiometry N [1] of 2.

In the case of “CBKP2 complex (PaCgi121/PaBud32/PaKae1/PaPcc2) (from UniProt Q9UXT7 1-324)”, the stoichiometry N [2] is reported as 2.

“PaPcc2 with C-terminal hexa-histidine tag (natural protein)” gave a stoichiometry N [3] of 2.
